Substrate in the data set: Nc1ncnc2c1ncn2[C@@H]1O[C@H](COP(=O)(O)O)[C@@H](O)[C@H]1O
Briefly: spectrophotometric deamination assay, initial rates, Lineweaver-Burk. The class given is biochemical, Helix pomatia. The following applies: 20 mM Tris-HCl pH 7.5, 50 mM NaCl, 25 °C (general assay buffer). The text has this: spectrophotometric deamination assay, initial rates, Lineweaver-Burk on […]

B1: HPAMPD (recombinant H. pomatia AMP deaminase) (Helix pomatia) (protein)
chain: LAVRFPTMDEYTNAREELIGSEQYLRVGGSINLNNKEKKLNQFILREKRAIIENSRLNKTQYIPAVSFFLSKSQMESTPIFKIIKDMPKGAALHLHDTASARIDWIVSNATYRDHVYMCMDQDNFVRLTVSGTGPPANSGCEWKLVETERANSGDIAAFDHWLKSNISLLTTDPLVTYPSLDKVWGRFDKHFSQLRGIIYHTPIRRDYYRQILEEFRSDNVQYVEVRSSLSGYYDLDGTVHDPEYGLQLYKAVTEEFVRTYPDFSGAKIIKSTARVKPNTDIFNDVKLSMDLYKRYPGFFLGFDLVAQEDPNTSLLGYIDSLLYPSRQNPPVSLPYYFHAGETNWQGTEVDYNLVDALLLNATRIGHGFALIKHPRVIELVKSRGVAVEVNPVSNQLLGLVKDLRNHAAAPLLAQNVPVVISSDDPGVWEALPMSHDMYVAFMDLVGEDAGLDVLKQLVWNSIQYSSMNATEKKTALKLLQAKWNNFINDSLIKWKLTNKKVI
notes: secreted from Pichia pastoris with alpha-factor signal; C-terminal His10; Endo Hf treated; 58676 Da; ORF 536 residues; homodimer predicted
As a reminder, the Km is the concentration of substrate that gives half-maximal velocity. Regarding B1, the Km stood at 25 µM and the kcat came to 170 per second.

Values taken from paper PMC10358891, “The AMP deaminase of the mollusk Helix pomatia is an unexpected member of the adenosine deaminase-related growth factor (ADGF) family” (PLOS ONE, 2023).
